From patent publication US20030157712A1, “Methods for determining cell responses through EphB receptors” (priority 1997, published 2003)

Tests used:
[1] = target: T1, EphB2 (Homo sapiens, UniProt P29323); assay: EphB2 immunoprecipitation and phosphotyrosine immunoblot; format: cell-based; conditions: HRMEC; Fc fusion proteins 500 ng ml^−1
T1 construct: EphB2 receptor immunoprecipitates (from HRMEC); endogenous in cells; host or cells: HRMEC
T1 sequence (P29323 19-1055): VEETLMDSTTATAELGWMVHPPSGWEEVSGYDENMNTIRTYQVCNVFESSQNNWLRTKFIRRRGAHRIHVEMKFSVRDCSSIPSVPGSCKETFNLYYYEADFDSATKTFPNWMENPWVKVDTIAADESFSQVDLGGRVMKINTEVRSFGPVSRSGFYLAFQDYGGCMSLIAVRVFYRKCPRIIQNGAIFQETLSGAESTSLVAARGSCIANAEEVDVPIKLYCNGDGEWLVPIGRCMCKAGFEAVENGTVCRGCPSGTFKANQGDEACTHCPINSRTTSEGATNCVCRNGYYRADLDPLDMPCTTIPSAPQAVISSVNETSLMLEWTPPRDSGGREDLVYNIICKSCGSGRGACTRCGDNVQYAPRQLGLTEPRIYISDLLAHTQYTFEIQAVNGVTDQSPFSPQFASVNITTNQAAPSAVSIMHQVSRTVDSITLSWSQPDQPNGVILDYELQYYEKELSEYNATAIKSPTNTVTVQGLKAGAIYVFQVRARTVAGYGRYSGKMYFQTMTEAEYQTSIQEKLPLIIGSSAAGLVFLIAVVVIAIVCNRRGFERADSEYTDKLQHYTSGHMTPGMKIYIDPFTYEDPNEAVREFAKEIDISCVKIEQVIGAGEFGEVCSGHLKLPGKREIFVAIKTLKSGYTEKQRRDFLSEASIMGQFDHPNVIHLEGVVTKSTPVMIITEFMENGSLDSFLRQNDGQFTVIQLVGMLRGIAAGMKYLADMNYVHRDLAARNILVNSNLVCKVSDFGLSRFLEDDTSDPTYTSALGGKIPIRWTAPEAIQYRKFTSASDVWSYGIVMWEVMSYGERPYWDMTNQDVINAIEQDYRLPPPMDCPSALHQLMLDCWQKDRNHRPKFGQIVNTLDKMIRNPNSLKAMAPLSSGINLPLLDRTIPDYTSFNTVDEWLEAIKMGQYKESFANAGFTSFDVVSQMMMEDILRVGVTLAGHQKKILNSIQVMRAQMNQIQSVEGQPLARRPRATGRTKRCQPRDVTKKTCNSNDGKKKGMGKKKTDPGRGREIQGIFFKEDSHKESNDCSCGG
Experimental: Ligand stimulation and immunoprecipitation of endogenous EphB receptors. Primary HRMEC were used at passages 3-6, as described (12). P19 cells were cultured as recommended (ATCC, Rockville, Md.). Ninety min prior to ligand stimulation, cells (2×10^5cells/60 mm dish) were plated on Matrigel-(Collaborative Biomedical Products, Becton Dickinson, Bedford, Mass., as recommended) or fibronectin-coated (29) dishes. Ligand (ephrin-B1/Fc) or control (ORF/Fc) (30) multimers were generated by preincubation with anti-Fc at a fixed ratio of 0.1× the indicated concentrations of Fc fusion proteins [50 ng ml^−1 anti-Fc for 500 ng ml^−1 Fc fusion protein]. If not otherwise indicated, Fc fusion proteins (ephrinB1/Fc or ORF/Fc) were used at 500 ng ml^−1 in the absence or presence of preclustering anti-Fc at 50 ng ml^−1. Cells were incubated with agonists at 37° C. for 10 min, or as described in the figure legends. Immunoprecipitations were conducted on either cell lysates (P19) or on Triticum vulgaris lectin affinity purified fractions of HRMEC (15) (needed to reduce the background from Matrigel). Precipitated proteins were analyzed by immunoblot (15).
EphB1 and EphB2 immunoprecipitates from HRMEC stimulated with dimeric or multimeric (+anti-Fc) ephrin-B1/Fc were analyzed for receptor activation (anti-PY), and coprecipitation of heteromeric receptors (anti-EphB1, or anti-EphB2). […]

[2] = tested on: HRMEC; assay: Endothelial assembly into capillary-like structures (HRMEC); format: cell-based, human; conditions: HRMEC on Matrigel, two dimensional in vitro assay, 8 h
Experimental: Endothelial assembly into capillary-like structures. Twelve well plates (Falcon) were coated with thin layers of Matrigel. HRMEC were plated at a density of 4×10^4 cells/well in DME containing 1% fetal bovine serum. Indicated agonists, control peptides, alone, or in combination with the EphB1/Fc antagonist (1000 ng ml^−1) (FIG. 5) were added at the time of plating. Cells were incubated at 37° C. for 8 h and photographed using phase microscopy (magnification 100×) (Diaphot-TMD, Nikon).

[3] = tested on: P19 cells; assay: Cell adhesion assay (P19); format: cell-based, murine; conditions: fibronectin coated dishes, 90 min
Experimental: Cell adhesion assay. Six well plates (Falcon) were coated with thin layers of Matrigel or with 0.5 μg cm^2 fibronectin (29). Growth medium was replaced 48 h before harvest with binding medium, either DMEM (HRMEC) or ∝-MEM (P19) containing 1% bovine albumin. Cells were recovered by trypsinization (HRMEC) or vigorous tituration (P19) and washed three times with binding medium and plated at 1×10^5 cells per well. Ligands were added coincident with plating at concentrations indicated above. After 90 min, unattached cells were dislodged by applying 4 brisk slaps of the plate on a horizontal surface, and the attached cell layer was carefully washed once with PBS containing calcium and magnesium to collect the remaining unattached cells. Attached cells were collected after incubation in Dispase (Collaborative Biomedical Products). Separate fractions were recovered by centrifugation, washed once and trypan blue excluding cells counted visually using a hemocytomer. The ratio of attached to total number of cells recovered were calculated for each of three wells. Data are expressed as mean+/−SEM and are representative of three independent experiments.

B1: ephrin-B1/Fc dimers: disulfide-linked immunoglobulin Fc fusion form of ephrin-B1 (protein)
chain: LAKNLEPVSWSSLNPKFLSGKGLVIYPKIGDKLDIICPRAEAGRPYEYYKLYLVRPEQAAACSTVLDPNVLVTCNRPEQEIRFTIKFQEFSPNYMGLEFKKHHDYYITSTSNGSLEGLENREGGVCRTRTMKIIMKVGQDPNAVTPEQLTTSRPSKEADNTVKMATQAPGSRGSLGDSDGKHETVNQEEKSGPGASGGSSGDPDGFFNSK
modifications: left off: a dimerising Fc or GST
tyrosine phosphorylation of EphB2 [1]: stimulated | endothelial capillary-like assembly [2]: did not | P19 attachment to fibronectin [3]: modest effect to decrease
